Measured values reported in paper PMC4182837, “BosR Functions as a Repressor of the ospAB Operon in Borrelia burgdorferi”.

Molecular target: BosR (Borrelia burgdorferi B31, UniProt O51592 1-176)
Test: EMSA; 400 nM BosR, 1 nM probe, 50 ug/ml salmon sperm DNA
Conditions: protein: recombinant; tags: C-terminal His6 (pET-23a); chain copies: 2; label: 5' digoxigenin on one strand

B1: cisI probe (dsDNA)
DNA 1: TAATTAGAACCAAACTTAATTAAAACCAAACTTAATTGAAGTTATTATCATTTTATTTTTTTTCAATTTT
DNA 2: AAAATTGAAAAAAAATAAAATGATAATAACTTCAATTAAGTTTGGTTTTAATTAAGTTTGGTTCTAATTA
**Q.** Does B1 bind?
**A.** binds

B2: IRs probe (ospC operator) (dsDNA)
DNA 1: CAATATTTTTCAAATTCTTCAATATTTATTCAAGATATTGAAGAATTTGAAAAAATTATTTTTTCAAATA
DNA 2: TATTTGAAAAAATAATTTTTTCAAATTCTTCAATATCTTGAATAAATATTGAAGAATTTGAAAAATATTG
**Q.** Does B2 bind?
**A.** no binding

B3: cisII probe (dsDNA)
DNA 1: TGTTATTTGTTAATCTTATAATATAATTATACTTGTATTAAGTTATATTAATATAAAAGGAGAATATATT
DNA 2: AATATATTCTCCTTTTATATTAATATAACTTAATACAAGTATAATTATATTATAAGATTAACAAATAACA
**Q.** Does B3 bind?
**A.** binds
